The numbers were not newly measured in article doi:10.1101/2025.04.18.649563, which cites them from elsewhere.

The data set deals with F-actin (Oryctolagus cuniculus) (UniProt P68135). As to conditions: cited from earlier work.

As to LifeAct (from UniProt Q08641), the Kd was 2.2 µM.
